# Measurements as given in the nanobody polyreactivity screen of Harvey et al. (2022).
# Assay: yeast display, Sf9 membrane polyspecificity reagent, FACS + sequencing; frameworks hold sequencing errors
# In short: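 Nanobodies from a synthetic yeast display library (Saccharomyces cerevisiae BJ5465), induced 36–48 hours with galactose, were stained 1 hour at 4 °C with 10% biotinylated, detergent-solubilized Sf9 membrane reagent, enriched on streptavidin microbeads, then FACS-sorted. Anti-HA (expression) and streptavidin (reagent binding) fluorescence set low and high (top ~1%) gates. Polyreactivity labels come from the gate of origin. Genes were colony-PCR amplified, MiSeq 2 × 250 sequenced and filtered by CDR length.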
row,Sequence,polyreactivity (PSR sort gate)
1,QVQLVESGGGLVQAGGSLRLSCAASGSIFSDYAMGWYRQAPGKETELVAGISSGGGTTYADSVKGRFTISRDNAKNTVYLQMNSLKPEDTAVYYCNKQDQPVGRSGYPYGYDYWGQGTQVTVSS,low polyreactivity
2,QVQLVESGGGLVQAGGSLRLSCAASGSIFSFNAMGWYRQAPGKERELVAAITTSGGSTYADSVKGLFTISRDNAKNTVYLQMNSLKPEDTAVYYCAVVGEVEGYYWDDYWGQGTKVTVSS,low polyreactivity
3,QVQLVESGGGLVQAGGSLRLSCAASGSIFSFYAMGWYRQAPGKERELVAAISWSGGSTYYADSVKGRFTISRDNAKNTVYLQMNSLKPEDTAVYYCAADYYYGTYDYWGQGTQVTVST,low polyreactivity
4,QVQLVESGGGLVQAGGSLRLSCAASGSIFSFYAMGWYRQAPGKERELVAAITSDGSTDYADSVKGRFTISRDNAKNTVYLQMNSLKPEDTAVYYCAADYIVRVVSRYRYGYEYWGQGTQVTVSL,low polyreactivity
5,QVQLVESGGGLVQAGGSLRLSCAASGSIFSFYAMGWYRQAPGKERELVAGIDISGGSTYYADSVKGRFTISRDNAKNTVYLQMNSLKPEDTAVYYCAAAKRTDYFYFVAKSGFRYYSWGQGTQVTVSS,high polyreactivity
6,QVQLVESGGGLVQAGGSLRLSCAASGSIFSFYAMGWYRQAPGKERELVASITRRGGSTSYADSVKGRFTISRDNAKNTVYLQMNSLKPEDTAVYYCATESKFISVQRVGYYYVKFDYWGQGTQVTVSS,high polyreactivity
7,QVQLVESGGGLVQAGGSLRLSCAASGSIFSFYTMGWYRQAPGKERELVASSTTYADSVKGRFTISRDNAKNTVYLQMNSLQPEDTAVYYCATRHPARRDYWGQGTQVTVSS,low polyreactivity
8,QVQLVESGGGLVQAGGSLRLSCAASGSIFSFYTMGWYRQAPGKERELVATISWRSGSTYYADSVKGRFTISRDNAKNTVYLQMNSLKPEDTAVYYCARSTSRYYYWGQGTQVTVSS,high polyreactivity
9,QVQLVESGGGLVQAGGSLRLSCAASGSIFSGNAMGWYRQAAGKERELVAVITYRSSRTYYADSVKGRFTISRDNAKNTVYLQMNSLKPEDTAVYYCAAYSNRVVKGYGYWGQGTQVTVSS,high polyreactivity
10,QVQLVESGGGLVQAGGSLRLSCAASGSIFSGNAMGWYRQAPGKERELVAAIDWSGDSTYYADSVKGRFTISRDNAKNTVYLQMNSLKPEDTAVYYCNTVSFSWGYSAYDYWGQGTQVTVSS,low polyreactivity
11,QVQLVESGGGLVQAGGSLRLSCAASGSIFSGNAMGWYRQAPGKERELVAAISRNGGSTYYADSVKGRFTISRDNAMNTVYLQMISLKPEDTAVYYCAASWYRRKIYYSWGQGTQVTVSS,high polyreactivity
12,QVQLVESGGGLVQAGGSLRLSCAASGSIFSGNVMGWYRPAPGKERELVAAISGRGGSTYYPDSVKGRFTISRDNAKNTVFLQMNSRNPVDTAVYECAAVYLKTYYWGQGTQVTVSS,high polyreactivity
13,QVQLVESGGGLVQAGGSLRLSCAASGSIFSGWYTMGWYRQAPWKERELVASISISTTDTYYADSVKGRFTISRDNAKNTVYVQMNSLKPEDTAVYYCAASGWDHVIVEYDYWGQGTQVTVSS,low polyreactivity
14,QVQLVESGGGLVQAGGSLRLSCAASGSIFSGYVMGWYRQAPGKERELVAAIDNSSGSTYYADSVKGRFTISRDNAKNTVYLQMNSLKPEDTAVYYCAADYYSKAYSEYDYWGQGTQVTVSS,low polyreactivity
15,QVQLVESGGGLVQAGGSLRLSCAASGSIFSHYVMGWYRQAPGKERELVAAISRSGGTTYYADSVKGRFTISRDNAKNTVYLQMNSLKPEDTAVYYCNVRGEPYPYYDGYEYDYWGQGTQVTVSS,low polyreactivity
16,QVQLVESGGGLVQAGGSLRLSCAASGSIFSIYAMGWYRQAPGKERELVAAIDSGTSTTYADSVKGRFTISRDNAKNTVYLQMNSLKPEDTAVYYCAAALYSDVAAVATYVYYWGQGTQVTVSS,low polyreactivity
17,QVQLVESGGGLVQAGGSLRLSCAASGSIFSIYAMGWYRQAPGKERELVASITRSSGRTYYADSVKGRFTISRDNAKNTVYLQMNSLKPEDTAVYYCNAVWNTFISGRSYDYWGQGTQVTVSS,low polyreactivity
18,QVQLVESGGGLVQAGGSLRLSCAASGSIFSKNAMGWYRQAPGKERELVAAISWSGDRTYYADSVKGRFTISRDNAKNTVYLQMNSLKPEDTAVYYCAADYTVKYGYWGQGTQVTVSS,high polyreactivity
19,QVQLVESGGGLVQAGGSLRLSCAASGSIFSKYAMGWYRQAPGKERELVAAISISDGNTYYADSVKGRFTISRDNAKNTVYLQMNSLKPEDTAVYYCATVGSEDGDPGFDYWGQGTQVTVSS,low polyreactivity
20,QVQLVESGGGLVQAGGSLRLSCAASGSIFSKYVMGWYRQAPGKERELVAAISWSGTRTYYADSVKGRFTISRDNAKNTVYLQMNSLKPEDTAVYYCAARRPVRVPGQYDYWGQGTQVTVSS,high polyreactivity
21,QVQLVESGGGLVQAGGSLRLSCAASGSIFSNNAMGWYRQAPGKEREFVAAIRGRGTRAYYADSVKGRFTISRDNAKNTVYLQMNSLKPEDTAVYYCAASARTYVQSGYWGQGTQVTVSS,high polyreactivity
22,QVQLVESGGGLVQAGGSLRLSCAASGSIFSPNAMGWYRQAPGKERELVAAISRGDSTYYADSVKGRFTISRDNAKNTVYLQMNSLKPEDTAVYYCAATYLRRPVSGAYRSEYNYWGQGTQVTVSS,high polyreactivity

row,Sequence,polyreactivity (PSR sort gate)
1,QVQLVESGGGLVQAGGSLRLSCAASGSIFSPNAMGWYRQAPGKERQLVAAIRSGGSTYYADSVKGRFTISRDNAKNSVYLQMNSLKPADTAVYYCAADTYTYYYYLARYYYWGQGTQVTVSS,low polyreactivity
2,QVQLVESGGGLVQAGGSLRLSCAASGSIFSPYAMGWYRQAPGKERELVAAISWTGGRTYYADSVKGRFTISRDNAKNTVYLQMNSLKPEDTAVYYGAAAYYGTRPYGYWGQGTQVTVSS,high polyreactivity
3,QVQLVESGGGLVQAGGSLRLSCAASGSIFSPYAMGWYRQAPGKERELVAAITDSGGSTYYADSVKGRFTISRDNAKYTVYLQMNSLKPEDTAVYYCAADLRYWSWAFDYWGQGTQVTVSS,low polyreactivity
4,QVQLVESGGGLVQAGGSLRLSCAASGSIFSPYTMGWYRQAPGKERELVAAMSASGGSTYYADSVKGRFTISRDNAKNTVYLQMNSLKPEDTAVYYCNVYRITRHSYNCGFDYWGQGTQVTVSS,low polyreactivity
5,QVQLVESGGGLVQAGGSLRLSCAASGSIFSQYAMGWYRQAPGKERELVAAITYGGGSTYYADSVKGRFTISRDNAKNTVYFQMNSLKPEDTAVYYCAKEFKYWGYPYDYWGQGTQVTVSS,low polyreactivity
6,QVQLVESGGGLVQAGGSLRLSCAASGSIFSQYAMGWYRQAPGKERELVDAITYGGGSTYYADSVKGRFTISRDNAKNTVYLQMNSLKPEDTAVYYCNADGWNTYIGPRRYRYDYWGQGTQVTVSS,low polyreactivity
7,QVQLVESGGGLVQAGGSLRLSCAASGSIFSRIAMGWYRKAPGKERELVAAISGRGGSTYYADSVKGRFTISRDNAKNTVYLHMKSLKPEDTAVYYCAKAVNYRLSQAMDYWGQGTQVTVSS,high polyreactivity
8,QVQLVESGGGLVQAGGSLRLSCAASGSIFSRNAMGWYRQAPGKEREFVAAISWSGGRTYYADSVKGRFTISRDNAKNTVYLQMNSLKPEDTAVYYCSKGYSYHWYHVTFYSWGQGTQVTVSS,high polyreactivity
9,QVQLVESGGGLVQAGGSLRLSCAASGSIFSRNAMGWYRQAPGKEREFVARISWSSTSTNYADSVKGRFTISRDNAKNPVYLQMNSLKPEDTAVYYCAADFRGDRRFDYWGQGTQVTVSS,low polyreactivity
10,QVQLVESGGGLVQAGGSLRLSCAASGSIFSRNAMGWYRQAPGKERELVAAISRRGGSTYYADSVKGRFTISRDNAKITVYLQMNSLKPEDTAVYYCAAPFEAVRSYYWGQGTQVTVSS,high polyreactivity
11,QVQLVESGGGLVQAGGSLRLSCAASGSIFSRNAMGWYRQAPGKERELVASMSWRGGSTNYADSVKGRFTISRDNAKNTVYLQMNSLKPEDTAVYYCNAPYRHQPGGGYWGQGTQVTVSS,low polyreactivity
12,QVQLVESGGGLVQAGGSLRLSCAASGSIFSRNVMGGSRQAPGKERELVAAITGSGGRTYYADSVKGRFTISRDNAKNTVYLQMNSLKPEDTAVYYCAKSRPGPYDYWGQGTQVTVSS,high polyreactivity
13,QVQLVESGGGLVQAGGSLRLSCAASGSIFSRYAMGWYRQAPGKEMELVAAISSRGGSTSYADSVKGRFTISRDYAKNTVYLQMNSLQPEDTAVYYCGRVYYAGPRLYRDFGFDYWGQGTQVTVSS,high polyreactivity
14,QVQLVESGGGLVQAGGSLRLSCAASGSIFSRYAMGWYRQAPGKERELVAAISKSGGTTYYADSVKGRFTISRDNAKNTVYLQMNSLKPEDTAVYYCNAKRYRNGSIGMGYWGQGTQVTVSS,high polyreactivity
15,QVQLVESGGGLVQAGGSLRLSCAASGSIFSRYTMGWYRQAPGKERELVARINSSGTSTYYADSVQGRFTIARDNAKNTVYLQMNSLKPEDTAVYYCAAQVDTQYWDFDYWGQGTQVTVSS,low polyreactivity
16,QVQLVESGGGLVQAGGSLRLSCAASGSIFSRYTMGWYRQATGKERELVAAITSSGGSTYYADSVKGRFTISRDNAKNTVYLQMNSLKPEDTAVYYCNAVRRQWYWTAWFSARGYGYWGQGTQVTVSS,high polyreactivity
17,QVQLVESGGGLVQAGGSLRLSCAASGSIFSRYTMGWYRQPPGKERELVAAITSSGGRTYYADSVKGRFRISRDNAKNTVYLQLNSLKPVVTAVYYCAARIQKQQGYGYWGQGTQVTVSS,high polyreactivity
18,QVQLVESGGGLVQAGGSLRLSCAASGSIFSSNAMGWYRQAPGKERELVAAISRRGGSTYYADSVKGRFTISRDNAKNTVYLQMNSLKPEDTAVYYCNAYPWLLSTRYDYWGQGTQVTVSS,high polyreactivity
19,QVQLVESGGGLVQAGGSLRLSCAASGSIFSSNAMGWYRQAPGKERELVAAISSSGSRTYYADSVKGRFTISRDNAKNTVYLQMNSLKPEDTAVYYCAAVIRYTRSYDYWGQGTQVTVSS,high polyreactivity
20,QVQLVESGGGLVQAGGSLRLSCAASGSIFSSNVMGWYRQAPGKERELVAAITVRGSRTYYADSVKGRFTISRDNAKNTVYLQMNSLKPEDTAVYYCNAVARVLGSDRRLQYYYWGQGTQVTVSS,high polyreactivity
21,QVQLVESGGGLVQAGGSLRLSCAASGSIFSSYAMGWYRQAPGKERELVAAISGSGGSTFYADSVKGRFTISRDNAKNTVYLQMNSLKPEDTAVYYCAARYYWYGRAGKKHASYYYWGQGTQVTVSS,high polyreactivity
